Key:
Mouse PD-L1 on CHO cells [1] = target: T1, Mouse PD-L1 on CHO cells (mouse, UniProt Q9EP73 19-290); assay: flow cytometry, CHO-mPD-L1 cells, Anti-human IgG Fc-FITC, antibody 1 µg/ml
T1 construct: Expressed in CHO cells for the cross-reactivity test; also called mPD-L1; murine PD-L1 protein
Target sequence in this assay (Q9EP73 19-290 limits assumed): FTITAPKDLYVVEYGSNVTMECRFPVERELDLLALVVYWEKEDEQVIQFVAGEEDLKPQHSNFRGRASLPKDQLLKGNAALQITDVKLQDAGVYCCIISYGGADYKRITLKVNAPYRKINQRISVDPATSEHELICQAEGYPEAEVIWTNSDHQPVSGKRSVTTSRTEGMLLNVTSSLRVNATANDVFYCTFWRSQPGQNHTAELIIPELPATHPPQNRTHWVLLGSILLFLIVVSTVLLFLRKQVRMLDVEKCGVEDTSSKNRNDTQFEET

Mouse PD-L1 on CHO cells [2] = target: T1, Mouse PD-L1 on CHO cells; assay: flow cytometry on CHO cells expressing mPD-L1
Excerpt: (§1) The rhesus monkey PD-L1 protein coding sequence (rmPD-L1, SEQ ID NO: 54), the mouse PD-L1 protein coding sequence (mPD-L1, SEQ ID NO: 53), and the human-mouse chimeric PD-L1 (the extracellular region of the mouse PD-L1 protein was replaced with human protein fragments) protein coding sequence (chiPD-L1, SEQ ID NO: 55) were transferred into CHO cells for protein expression and used for the antibody cross-reactivity testing.
(§2) The test was detailed as follows: a 96-well cell culture plate was used, and the above-mentioned CHO cells expressing different PD-L1 proteins (25 μl, 2×10⁴ cells/well) was added to each well, and then 25 μl of the ascites purified anti-PD-L1 antibodies (1 μg/ml) were added to each well. The mixture was incubated at 4° C. for 30 minutes. The 96-well cell culture plate was centrifuged at 1200 rpm for 5 minutes and washed twice with PBS. Subsequently, 50 μl of anti-mouse IgG Fc-FITC at 1:100 dilution was added to each well, and was incubated at 4° C. for 30 minutes. Subsequently, the 96-well cell culture plate was centrifuged at 1200 rpm for 5 minutes, and washed once with PBS. Then 200 μl of PBS was added to each well, and flow cytometry analysis was performed.

[3] = target: T2, human-mouse chimeric PD-L1 on CHO cells (human-mouse chimeric, UniProt Q9EP73 19-290 (mouse entry)); assay: flow cytometry, CHO-chiPD-L1 cells, Anti-mouse-IgGFc-FITC, antibody 1 µg/ml
T2 construct: expressed in CHO cells; also called chiPD-L1
T2 chain: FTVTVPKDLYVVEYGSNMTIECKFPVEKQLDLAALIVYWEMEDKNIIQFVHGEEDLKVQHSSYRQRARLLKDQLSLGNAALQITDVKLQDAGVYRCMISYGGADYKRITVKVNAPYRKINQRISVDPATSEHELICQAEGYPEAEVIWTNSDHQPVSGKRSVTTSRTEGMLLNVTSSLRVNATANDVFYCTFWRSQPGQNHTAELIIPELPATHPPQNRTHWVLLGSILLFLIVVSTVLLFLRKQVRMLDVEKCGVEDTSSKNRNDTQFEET
Excerpt: as §1, §2

[4] = target: T3, Rhesus monkey PD-L1 on CHO cells (rhesus monkey, UniProt Q9NZQ7 19-290 (human entry)); assay: flow cytometry, CHO-rmPD-L1 cells, Anti-mouse-IgGFc-FITC, antibody 1 µg/ml
T3 construct: Expressed in CHO cells for the cross-reactivity test; also called rmPD-L1; NP_001077358.1
T3 chain: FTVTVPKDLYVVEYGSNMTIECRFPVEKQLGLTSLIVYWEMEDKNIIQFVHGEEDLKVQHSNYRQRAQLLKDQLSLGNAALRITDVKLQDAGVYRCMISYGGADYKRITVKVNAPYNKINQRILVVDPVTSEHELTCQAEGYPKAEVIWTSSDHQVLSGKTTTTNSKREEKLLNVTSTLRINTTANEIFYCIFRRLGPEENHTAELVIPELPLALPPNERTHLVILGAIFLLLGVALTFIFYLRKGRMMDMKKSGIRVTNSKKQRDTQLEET
Excerpt: as §1, §2

Mouse PD-L1 on CHO cells [5] = target: T1, Mouse PD-L1 on CHO cells; assay: flow cytometry, CHO-mPD-L1 cells, Anti-mouse-IgGFc-FITC, antibody 1 µg/ml
Excerpt: as §1, §2

hPD-L1-His = target: T4, hPD-L1-His (human, UniProt Q9NZQ7 19-238); assay: SPR (Biacore T200), antibody on Protein A chip, hPD-L1-His injected, 1:1 fit
T4 construct: Bought protein; also called hPD-L1-His (manufactured by Edison); not shown: His tag
Method: Subsequently, the binding affinity of the anti-PD-L1 chimeric antibody, humanized antibody, and marketed control antibody to hPD-L1-His (manufactured by Edison) were determined by surface plasmon resonance (Biacore T200 biosensor, Biacore, INC, Piscataway N.J.) equipped with pre-immobilized Protein A sensor chips.
The detection results were read after the chip was regenerated with pH 2.0 glycine (30 μl/min, 10-20 s). Kinetic association rates (kon) and dissociation rates (koff) were obtained simultaneously by fitting the data globally to a 1:1 Langmuir binding model (Karlsson, R. Roos, H. Fagerstam, L. Petersson, B., 1994. Methods Enzymology 6. 99-110) using Biacore T200 Evaluation Software 3.0. Affinities were deduced from the quotient of the kinetic rate constants (KD=koff/kon).

T4 sequence (Q9NZQ7 19-238 limits assumed): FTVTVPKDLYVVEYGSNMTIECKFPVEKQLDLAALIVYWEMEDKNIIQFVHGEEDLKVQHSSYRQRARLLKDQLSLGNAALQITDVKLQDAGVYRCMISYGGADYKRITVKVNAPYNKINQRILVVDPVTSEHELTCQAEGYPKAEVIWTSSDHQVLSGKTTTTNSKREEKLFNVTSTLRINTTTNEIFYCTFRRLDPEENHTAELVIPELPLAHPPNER

Binder | % cells in the FITC-positive gate (Mouse PD-L1 on CHO cells [1]) [%] | binding result (Mouse PD-L1 on CHO cells [2]) | % cells in the FITC-positive gate [3] [%] | % cells in the FITC-positive gate [4] [%] | % cells in the FITC-positive gate (Mouse PD-L1 on CHO cells [5]) [%] | Kd (hPD-L1-His) [nM] | koff (hPD-L1-His) [s⁻¹] | kon (hPD-L1-His) [M⁻¹ s⁻¹]
33-10C9-mHvKv-IgG1 (antibody, V domains shown) VH: QVQLQQPGAELVKPGSSVKLSCKASGYTFTTYYIYWVKQRPGQGLEWIGGINPYNGGTSFNEKFESKATLTVDISSSTAFMQLSSLTSEDSAVYYCTRDGNYVDYWGQGTTLTVSS VL: QIVLTQSPAIMSASPGEKVTITCSASSTVSYVHWLQQKPDTSPKLWIYSTSNLASGVPARFSGSGSGTSYSLTISRMEAEDAATYYCQQRSSSPPTFGSGTKLEIK | 0.556 | no binding (tested: 1 µg/ml) |  |  |  |  |  | 
17-7E4 (antibody, V domains shown, Murine monoclonal antibody from hybridoma, purified from ascites) VH: QVQLQQSGAELVRPGVSVKISCKGSGFKFTDYAIHWVKQSHAKSLEWIGVISIYYGEASYNQKFKDKATLTVDTSSSTAYMELARLTSEDSAIYYCAREDYYGSSSYFDYWGQGTALTVSS VL: not shown |  | no binding (tested: 1 µg/ml) | 67.8 | 64.9 | 1.1 |  |  | 
07-6A11 (antibody, V domains shown, Murine monoclonal antibody from hybridoma, purified from ascites) VH: DVQLVESGGGLVQPGGSRKLSCAASGFTFSSFGMHWVRQAPEKGLEWVAYISSGSNTIYYADTVKGRFTISRDNPKNTLFLQMTSLRSEDTAIYYCTRNGYDGWYAMDYWGQGTSVTVSS VL: QIVLTQSPAIMSASPGEKVTMTCSASSSVSYIHWFQQKSGTSPKRWIYDTSKLASGVPARFSGRGSGTSYSLTISSMEAEDAATYYCQQWSTNPFTFGSGTKLEIK |  | no binding (tested: 1 µg/ml) | 77.4 | 51.4 | 4.56 |  |  | 
7E4-H2K1-IgG1 (antibody, V domains shown) VH: QVQLVQSGAEVKKPGASVKVSCKASGFKFTDYAIHWVRQAPGKSLEWMGVISIYYGEASYNQKFKDRVTLTVDTSASTAYMELSSLRSEDTAVYYCAREDYYGSSSYFDYWGQGTLVTVSS VL: DNQLTQSPSFLSASVGDRVTITCSASSSVSSSYLHWYQQKPGAAPKPLIHRTSNLASGVPSRFSGSGSGTEFTLTISSLQPEDFATYYCQQWSGYPYTFGGGTKLEIK |  |  |  |  |  | 27 | 0.00344 | 128000
7E4-H3K2-IgG1 (antibody, V domains shown) VH: QVQLVQSGAEVVKPGASVKISCKGSGFKFTDYAIHWVRQAPGKSLEWMGVISIYYGEASYNQKFKDKVTLTVDTSASTAYMELSSLRSEDTAIYYCAREDYYGSSSYFDYWGQGTLLTVSS VL: DNVLTQSPSFLSASVGDRVTMTCSASSSVSSSYLHWYQQKPGASPKPLIHRTSNLASGVPSRFSGSGSGTEFTLTISSLQPEDFATYYCQQWSGYPYTFGGGTKLEIK |  |  |  |  |  | 19.3 | 0.00299 | 155000
7E4-H3K1-IgG1 (antibody, V domains shown) VH: QVQLVQSGAEVVKPGASVKISCKGSGFKFTDYAIHWVRQAPGKSLEWMGVISIYYGEASYNQKFKDKVTLTVDTSASTAYMELSSLRSEDTAIYYCAREDYYGSSSYFDYWGQGTLLTVSS VL: DNQLTQSPSFLSASVGDRVTITCSASSSVSSSYLHWYQQKPGAAPKPLIHRTSNLASGVPSRFSGSGSGTEFTLTISSLQPEDFATYYCQQWSGYPYTFGGGTKLEIK |  |  |  |  |  | 23.9 | 0.00352 | 147000
7E4-H3K3-IgG1 (antibody, V domains shown) VH: QVQLVQSGAEVVKPGASVKISCKGSGFKFTDYAIHWVRQAPGKSLEWMGVISIYYGEASYNQKFKDKVTLTVDTSASTAYMELSSLRSEDTAIYYCAREDYYGSSSYFDYWGQGTLLTVSS VL: ENVLTQSPSFLSASVGDRVTMTCSASSSVSSSYLHWYQQKSGASPKPLIHRTSNLASGVPSRFSGSGSGTEYTLTISSVQPEDFATYYCQQWSGYPYTFGGGTKLEIK |  |  |  |  |  | 14.5 | 0.00218 | 150000
7E4-H2K3-IgG1 (antibody, V domains shown) VH: QVQLVQSGAEVKKPGASVKVSCKASGFKFTDYAIHWVRQAPGKSLEWMGVISIYYGEASYNQKFKDRVTLTVDTSASTAYMELSSLRSEDTAVYYCAREDYYGSSSYFDYWGQGTLVTVSS VL: ENVLTQSPSFLSASVGDRVTMTCSASSSVSSSYLHWYQQKSGASPKPLIHRTSNLASGVPSRFSGSGSGTEYTLTISSVQPEDFATYYCQQWSGYPYTFGGGTKLEIK |  |  |  |  |  | 12.7 | 0.00163 | 128000
08-3F2 (antibody, V domains shown, Murine monoclonal antibody from hybridoma, purified from ascites) VH: DVQLQESGPDLVKPSQTLSLTCTVTGYSITSGYNWHWIRQFPGNKLEWMGYIHHSSITNYNPSLKSRISITRDTSKNQFFLQLSSVTTEDTATFYCAREGYDYDWFAYWGQGTLVTVSA VL: DIVLAQSPATLSVTPGDSVSLSCRASQSISNNLHWYQQKSHESPRLLIKYASQSISGIPSRFSGSGSGTDFTLSINSVETEDFGMYFCQQSKSWPFTFGSGTRLEIK |  | no binding (tested: 1 µg/ml) | 88.3 | 60.9 | 7.37 |  |  | 
23-2A6-mHvKv-IgG1 (antibody, V domains shown) VH: QVQLKESGPGLVAPSQSLSITCTVSGFSLTSYDISWIRQPPGKGLEWLGAIWTGGGTNYNSAFMSRLSISKDNSKSQVFLKMNSLQTDDTAIYYCVRDPYYYAMDYWGQGTSVTVSS VL: DIQMNQSPSSLSASLGDTITITCHASQNLNVWLSWYQQKPGNIPKLLIYKASNLHTGVPSRFSGSGSGTGFTLTISSLQPEDIATYYCQQGQSYPRTFGGGTKLEIK | 0.886 | no binding (tested: 1 µg/ml) |  |  |  |  |  | 
24-1F4-mHvKv-IgG1 (antibody, V domains shown) VH: EVQLRESGPSLVRPSQTLSLTCSVTGDSFTSGYWNWIRKFPGNELESMGYISYSGSTYYNPSLKSRISITRDTSKSQFYLQLSSVTAEDTATYYCARSEGWLLPFAYWGQGTLVTVSA VL: DIVMSQSPSSLPVSVGEKVTMSCKSSQSLLYSSNQKNSLAWYQQKPGQSPKLLIYWASTRESGVPDRFTGSGSGTDFTLTISSVQAEDLSVYYCQQYYGYPFTFGSGTKLEIK | 15.5 | no binding (tested: 1 µg/ml) |  |  |  |  |  | 
23-4A8-mHvKv-IgG1 (antibody, V domains shown) VH: EVQLQESGPSLVKPSQTLSLTCSVTGDSITSGYWNWIRKFPGNKLEYMGYISYTGSTYYNPSLKSRFSITRDTSKNQYFLQLNSVTTEDTATYYCASYEGWLLPFAYWGQGTLVTVSA VL: DIVMSQSPSSLAVSVGEKVPLSCKSSQSLLYSSNQKSSLAWYQQKPGQSPKLLIYWASTRESGVPDRFTGSGSGTDFTLTISSVKAEDLAVYYCQQYYGYPFTFGSGTKLEIK | 3.07 | no binding (tested: 1 µg/ml) |  |  |  |  |  | 
